Source: patent US20250145724A1 (TWIST BIOSCIENCE, published 2025)

Experiments:
[1] = molecular target: T1, Adenosine A2A receptor (human) (human, UniProt P29274 1-412); assay: flow cytometry titration of IgG from 100 nM on hA2a (RL1-H MFI against IgG in nM); EC50 from the table drawn beside the curves
T1 construct: also called hA2a; hA2a receptor

[2] = molecular target: T1, Adenosine A2A receptor (human); assay: cell binding titration from 100 nM, RL1-H MFI; panel 'Immune Library to A2a protein + ZM241385'
Method: (§1) Purified A2a immunoglobulins from Tables 15-18 were assayed for binding in a titration from 100 nM.

[3] = molecular target: T1, Adenosine A2A receptor (human); assay: cell-based or functional assay
[4] = molecular target: T1, Adenosine A2A receptor (human); assay: cell-based or functional assay; remark: listed apart in the source
[5] = molecular target: T2, hA2b receptor (human, UniProt P29275 1-332); assay: cell binding on hA2b HEK293T cells, one bar per antibody; the y axis has no label or unit and the antibody concentration is not given
T2 construct: whole, on cells; also called adenosine A2B receptor
T2 sequence (looked up): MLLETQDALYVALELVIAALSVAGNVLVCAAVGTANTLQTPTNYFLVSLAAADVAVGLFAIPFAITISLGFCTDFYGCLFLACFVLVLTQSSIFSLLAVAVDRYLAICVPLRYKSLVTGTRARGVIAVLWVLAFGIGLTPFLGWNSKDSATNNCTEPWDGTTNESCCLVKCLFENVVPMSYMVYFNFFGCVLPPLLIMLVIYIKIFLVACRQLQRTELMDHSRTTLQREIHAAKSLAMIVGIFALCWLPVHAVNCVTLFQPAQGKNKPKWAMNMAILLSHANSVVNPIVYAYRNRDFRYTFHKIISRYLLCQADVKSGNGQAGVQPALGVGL

[6] = molecular target: T1, Adenosine A2A receptor (human); assay: flow cytometry titration 0.05-100 nM IgG, MFI; grey curve and grey number taken as HEK293-A2a cells, black (ND) as parent cells, no legend on the sheet
Method: (§2) Flow cytometry data showing binding to HEK293-A2a cells using immunoglobulins from variant libraries were generated using 100 nM IgG and compared to detected binding in parent cells. […] Selected variants were assessed for binding at concentrations titrated from 100 nM. […] Binding curves are plotted with IgG concentration vs. MFI (mean fluorescence intensity). […] Selected variants were assessed for binding at concentrations titrated from 100 nM. […] Binding curves are plotted with IgG concentration vs. MFI (mean fluorescence intensity).

[7] = molecular target: T1, Adenosine A2A receptor (human); assay: cell binding titration from 100 nM, RL1-H MFI; panel 'Synthetic Library to A2a protein + ZM241385'
Method: as §1

[8] = molecular target: T1, Adenosine A2A receptor (human); assay: cell binding titration from 100 nM, RL1-H MFI; panel 'Mouse Immune Library to A2a protein'
Method: as §1

[9] = molecular target: T1, Adenosine A2A receptor (human); assay: flow cytometry titration 0.05-100 nM IgG, MFI; grey curve taken as HEK293-A2a cells, black as parent cells
Method: as §2

T1 sequence (P29274 whole entry): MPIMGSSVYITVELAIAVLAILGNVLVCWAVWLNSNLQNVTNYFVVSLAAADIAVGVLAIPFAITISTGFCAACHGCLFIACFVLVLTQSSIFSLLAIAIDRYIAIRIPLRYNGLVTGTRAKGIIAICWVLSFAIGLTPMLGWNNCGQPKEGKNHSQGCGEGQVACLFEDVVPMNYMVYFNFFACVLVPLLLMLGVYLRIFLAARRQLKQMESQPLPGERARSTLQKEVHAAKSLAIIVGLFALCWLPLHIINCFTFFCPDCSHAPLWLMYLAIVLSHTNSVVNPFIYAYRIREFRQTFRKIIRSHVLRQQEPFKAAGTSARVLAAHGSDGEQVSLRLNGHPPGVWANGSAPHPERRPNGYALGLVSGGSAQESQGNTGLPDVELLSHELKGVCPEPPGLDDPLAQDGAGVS

B1: A2A-77 (antibody, V domains shown)
VH: QVQLQESGPGLVKPSGTLSLTCAVSGGSISSSNWWSWVRQPPGKGLEWIGEIYHSGNTNYNPSLKSRVTMSVDKSKNQFSLNLHSVTAADTAVYYCAREVVSGMIGTIFDYWGQGTLVTVSS
VL: ELVMTQSPSSLSASVGDRVTITCRASQRISSYLNWYQQKPGKAPKLLIYAASSLQSRVPSRFSGSGSGTDFTLTISSLQPEDFATYYCQQSYSTPLTFGGGTKLETK
notes: Tested as IgG
EC50 [1]: 5.76 nM | EC50 (read off the curve) [2]: ~5 nM | IC50, T cell activation assay (FIG. 32C) [3]: 5.92 nM | IC50 (antagonistic cAMP assay, RFU ratio 665/615nm against IgG in nM) [4]: 3.52 nM

B2: A2A-75 (antibody, V domains shown)
VH: QVQLQESGPGLVKPSGTLSLTCAVSGGSISSSNWWSWVRQPPGKGLEWIGEIYHSGNTNYNPSLKSRVTMSVDKSKNQFSLNLHSVTAADTAVYYCAREVVSGMIGTIFDYWGQGTLVTVSS
VL: ELVMTQFPSSLSASVGDRVTITCRASQSISSYLNWYQQKPGKAPKLLIYAASSLQSGVPSRFSGSGSGTDFTLTISSLQPEDFATYYCQQANSFPITFGQGTRLEIK
notes: Tested as IgG
binding result [5]: no binding

B3: A2A-9 (antibody, V domains shown)
VH: EVQLQQSGPGLVKPSQSLSLTCSVTGYSITSGYYWNWIRQFPGKKLEWMGYIRYDGSNNYNPSLKNRISITRDTSKNQFFLKLNSVTTDDTATYYCARVHHYYGSSYFDYWGQGTTLTVSS
VL: DIVMTQSQKFMSTSVGDRVSATCKASQNVGSSVAWFQQKPGQSPKALIYSTSYRYSGVPDRFTGSGSGTDFTLTISNVQSEDLAEYFCQQYNSYPLTFGAGTKLEIK
notes: Tested as IgG
EC50 [6]: 3.83 nM

B4: A2A-26 (antibody, V domains shown)
VH: EVQLLESGGGLVQPGGSLRLSCAASGFTFSTYAMGWVRQAPGKGLEWVSGISGSAGSTYYADSVKGRFTISRDNSKNTLYLQMNSLRAEDTAVYYCAAARGHWRWRLGRRYDYWGQGTLVTVSS
VL: DIQMTQSPSSLSASVGDRVTITCRASQTISRYLNWYQQKPGKAPKLLIYSASTLQSGVPSRFSGSGSGTDFTLTISSLQPEDFATYYCQQSYSTPHTFGGGTKVEIK
notes: Tested as IgG
binding result [7]: binds | binding result [5]: binds

B5: A2A-27 (antibody, V domains shown)
VH: EVQLVESGGGLVKPGGSLRLSCAASGFTFSSYAMAWVRQAPGKGLEWVSAISGSGGSTYFADSVKGRFTISRDNSKNTLYLQMNSLRAEDTAVYYCAAARGYWRWRLWRRYDYWGQGTLVTVSS
VL: DIQMTQSPSSLSASVGDRVTITCRASQSIGSYLNWYQQKPGKAPKLLIYGASNLQSGVPSRFSGSGSGTDFTLTISSLQPEDFATYYCQQGYSAPRTFGGGTKLEIK
notes: Tested as IgG; also called A2A-27 (Alloy)
binding result [7]: binds | binding result [5]: binds

B6: A2A-78 (antibody, V domains shown)
VH: EVQLLESGGGLVQPGGSLRLSCAASGFTFSAYDIYWVRQPTGKGLEWVSAIGTAGDTYYPGSVKGRFIISRESAKNSVYLQMNSLRAGDTAVYYCAVGYNWVFDLWGQGTLVTVSS
VL: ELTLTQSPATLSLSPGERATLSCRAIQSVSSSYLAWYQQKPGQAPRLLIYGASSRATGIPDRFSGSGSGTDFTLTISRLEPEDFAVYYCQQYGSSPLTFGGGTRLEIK
notes: Tested as IgG
EC50 (read off the curve) [2]: ~5 nM

B7: A2A – 80 (antibody, V domains shown)
VH: QVQLVQSGGGLVKPGGSLRLSCAASGFTISTYDIYWVRQATGKGLEWVSAIGTAGDTYYPGSVKGRFTISRENAKNSLYLQMNSLRAGDTAVYYCASGYNWIFDYWGQGTLVTVSS
VL: ELTLTQSPGTLSLSPGERATLSCRASQSVSSNLAWYQQKPGQAPRLLIYGASTRATGTPARFSGSGSGTEFTLTISSLQSEDFAVYYCQQYGSSPPTFGQGTRLEIK
notes: panel 'Immune Library to A2a protein + ZM241385'
binding result [2]: binds

B8: A2A – 79 (antibody, V domains shown)
VH: QVQLQESGGGVVRPGGSLRLSCAASGFTFDDYGMSWVRQVPGKGLEWVSGITWNGDRSGYADSVKGRFTISRDNAKNSLYLQMNSLRAEDTALYYCVRDGLTGIFDYWGQGTLVTVSS
VL: ELTLTQSPATLSVSPGERATLSCRASQSVSSYLAWYQQKPGQAPRLLIYGASSRATGIPDRFSGSGSGTDFTLTISRLEPEDFAVYYCQQYGNSYTFGQGTKVDIK
notes: as for B7
binding result [2]: binds

B9: A2A-84 (antibody, V domains shown)
VH: EVQLVESGGGLVKPGGSLRLSCAASGYTFTEYITHWVRQAPGKGLEWVATISGGGSYTNFPDSVKGRFTISRDNAKNTLFLQMTSLRSEDTAMYYCARPNYSGSSPFAYWGQGTLVTVSA
VL: DIVMTQAPAIMSASPGEKVTMTCSASSSVSYMYWYQQKPGSSPRFLIYDTSNLASGVPVRFSGSGSGTSYSLTISSMEAEDAATYYCQQWNSNPLTFSAGTKLEIK
notes: Tested as IgG
binding result [8]: binds

B10: A2A-35 (antibody, V domains shown)
VH: EVQLVESGGGLVKPGGSLRLSCAASGFTFSTYGMSWVRQAPGKGLEWVSGISGSGGSTNYADSVKGRFTISRDNSKNTLYLQMNSLRAEDTAVYYCAAARGKWRWRLGRRYDYWGQGTLVTVSS
VL: DIQMTQSPSSLSASVGDRVTITCRASQSIGRYLNWYQQKPGKAPKLLIYAASSLHSGVPSRFSGSGSGTDFTLTISSLQPEDFATYYCQQSYVTPWTFGGGTKVEIK
notes: Tested as IgG
binding result [5]: binds

B11: A2A-15 (antibody, V domains shown)
VH: EVQLVESGGGLVKPGGSLRLSCAASGFTFSTYGMSWVRQAPGKGLEWVSGISGSGGSTNYADSVKGRFTISRDNSKNTLYLQMNSLRAEDTAVYYCAAARGKWRWRLGRRYDYWGQGTLVTVSS
VL: DIQMTQSPSSLSASVGDRVTITCRASQSIGRYLNWYQQKPGKAPKLLIYAASSLHSGVPSRFSGSGSGTDFTLTISSLQPEDFATYYCQQSYVTPWTFGGGTKLEIK
binding result [9]: no binding (tested: 100 nM)

B12: A2A-88 (antibody)
heavy chain variable region: EVQLVESGGGLVKPGGSLRLSCAASGFTFRTYGMHWVRQAPGKGLEWVAVISAEGSNKYYADSVKGRFTISRDNSKNTLYLQMNSLRAEDTAVYYCARDGRGSLPRPKGGFIGALSFHWPFGRWLGGSYGTYDSSEDSGGAFDIWGQGTLVTVSS
light chain variable region: QSVLTQPPSVSAAPGQKVTISCSGISSNIGNNYVSWYQQLPGTAPKLLIYDNNKRASGIPDRFSGSKSGTSATLGITGLQTGDEADYYCGTWDTSLSAGVFGGGTKLTVL
binding result [5]: binds

B13: A2A-19 (antibody, V domains shown)
VH: EVQLVESGGGLVKPGGSLRLSCAASGFTFSGYAMNWVRQAPGKGLEWVSTISGSGASTYYADSVKGRFTISRDNSKNTLYLQMNSLRAEDTAVYYCAAARGYKRWRLGRRYDYWGQGTLVTVSS
VL: DIQMTQSPSSLSASVGDRVTITCRASQSISDYLNWYQQKPGKAPKLLIYTASTLQSGVPSRFSGSGSGTDFTLTISSLQPEDFATYYCEQSYSTPWTFGGGTKLEIK
notes: Tested as IgG
binding result [5]: binds

B14: A2A-83 (antibody, V domains shown)
VH: EVQRVQSGAELVKPGASVKISCKASGYAFSSYWMNWVKQRPGKGLEWIGQIYPGDGDTNYNGKFEGKATLTADKSSSTAYMQLTSLTSDDSAVYYCARGAYWGQGTTLTVSS
VL: DIQMKQSQKFMSTSVGDRVSVTCKASQNVGTNVAWYQQKPGQSPKALIYSASYRYSGVPDRFTGSGSGTDFTLTISNVQSGDLAEYFCQQYNSYPLTFGAGTKLEIK
notes: Tested as IgG
binding result [5]: binds
